Consider one substance from article PMC8706527.

Test [1] has as its target recombinant human FcγRIIIa-Phe (human) (UniProt P08637). Description: SPR.
For test [2], the target named is recombinant human neonatal Fc receptor (rhFcRn) (human) (UniProt P55899). Description: SPR.
Sequence of recombinant human neonatal Fc receptor (rhFcRn) (human) (P55899 whole entry, looked up, tested part not stated): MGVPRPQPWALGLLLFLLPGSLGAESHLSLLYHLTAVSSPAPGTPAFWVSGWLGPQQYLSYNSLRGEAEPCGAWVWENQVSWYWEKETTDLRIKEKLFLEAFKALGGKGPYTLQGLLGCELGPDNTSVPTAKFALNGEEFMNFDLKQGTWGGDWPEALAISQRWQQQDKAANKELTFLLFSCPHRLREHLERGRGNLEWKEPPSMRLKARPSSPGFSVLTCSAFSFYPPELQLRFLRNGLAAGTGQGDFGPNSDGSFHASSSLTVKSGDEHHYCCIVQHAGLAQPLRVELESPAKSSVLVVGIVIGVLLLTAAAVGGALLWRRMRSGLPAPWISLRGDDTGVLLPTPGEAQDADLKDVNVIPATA

Sequence of recombinant human FcγRIIIa-Phe (human) (P08637 17-208): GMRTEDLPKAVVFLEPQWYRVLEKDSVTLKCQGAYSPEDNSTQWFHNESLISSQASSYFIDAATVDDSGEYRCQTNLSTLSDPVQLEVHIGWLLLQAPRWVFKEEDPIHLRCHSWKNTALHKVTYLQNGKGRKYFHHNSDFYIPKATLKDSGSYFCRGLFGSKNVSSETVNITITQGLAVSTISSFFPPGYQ

Turning to “wild type IgG1 (modified ZRC-3308 mAb with wild type Fc) (antibody)”, in test [1], the dissociation constant Kd – broadly, the equilibrium constant for the complex coming apart – worked out at 1620 nM. Also, in test [2], the Kd amounted to 195 nM and the kon (as a rule, a measure of how fast the partners come together) was 986000 M⁻¹ s⁻¹.
